The target of the assay is human protein kinase R (PKR) (human) (UniProt P19525). The experiment in a line: cell-based or functional assay.

Where only a bound is given, the exact number is not on record here.

UniProt P19525, sequence (P19525 2-551 limits assumed): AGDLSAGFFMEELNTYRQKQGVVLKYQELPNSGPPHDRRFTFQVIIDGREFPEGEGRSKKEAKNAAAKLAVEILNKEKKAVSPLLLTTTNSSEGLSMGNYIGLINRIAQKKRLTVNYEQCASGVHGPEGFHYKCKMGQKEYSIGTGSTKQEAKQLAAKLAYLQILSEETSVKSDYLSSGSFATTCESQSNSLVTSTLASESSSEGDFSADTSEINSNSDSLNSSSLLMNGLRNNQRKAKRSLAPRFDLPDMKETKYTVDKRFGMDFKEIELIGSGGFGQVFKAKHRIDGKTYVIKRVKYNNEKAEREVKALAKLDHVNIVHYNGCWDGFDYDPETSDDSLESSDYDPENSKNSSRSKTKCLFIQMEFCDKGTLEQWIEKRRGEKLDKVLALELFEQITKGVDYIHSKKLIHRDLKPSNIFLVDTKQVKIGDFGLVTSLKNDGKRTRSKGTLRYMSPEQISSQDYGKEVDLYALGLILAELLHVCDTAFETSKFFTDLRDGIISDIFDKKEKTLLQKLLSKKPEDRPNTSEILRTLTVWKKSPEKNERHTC

The substance sheeppox virus 011 (K3 ortholog) gave a virus titre increase between 5 hpi and 48 hpi in HeLa cells of more than 10 fold. taterapox virus 037 (K3 ortholog) displayed a virus titre increase between 5 hpi and 48 hpi in HeLa cells of more than 10 fold.

Values taken from US20210244739A1.
